Among the data in US20250314655A1 are TRBC1 Binding and TRBC2 Binding values, retold here.

Test [1] addresses TRBC1 peptide (biotinylated) (human). Description: TRF assay, scFv on biotin-peptide/neutravidin plate.
Test [2] deals with TRBC2 peptide (biotinylated) (human). The description is as above.

B1: CP_03_E05 (scFv, not shown: small tags and cut ends)
scFv: EVQLVESGGGVVQPGGSLRLSCAASGFTFSSYAMSWVRQAPGKGLEWVSAISGSGGSTYYADSVKGRFSISRDNSKNTLYLQMNSLRAEDTAVYYCARTRSSGAFDIWGQGTLVTVSSGGGGSGGGGSGGGASNFMLTQPHSVSESPGKTVTISCTRSSGSIASKYVQWYQQRPGSSPTTVIYEDNQRPSGVPDRFSGSIDTSSNSASLTISGLRTEDEADYYCHSYDSNNHSVFGGGTKVTVLGQPAA
In test [1], B1 showed a TRBC1 Binding of 1620 TRF units.

B2: CP_03_D05 (scFv, not shown: small tags and cut ends)
scFv: QVQLVESGAEVKKPGASVKVSCKASGYTFTGYYMHWVRQAPGQGLEWMGRINPNSGGTNYAQKFQGRVTMTRDTSISTAYMELSRLRSDDTAVYYCASPRGRGSAFDIWGQGTLVTVSSGGGGSGGGGSGGGASSYELTQPPSVSVSPGQTATISCSGDQLGGKYGHWYQKKPGQSPVLVLYQDRKRPAGIPERFSGSSSGNTITLTISGTQAVDEADYYCQAWDTNLGGVFGGGTKVTVLGQPAA
In test [1], B2 showed a TRBC1 Binding of 762 TRF units.

B3: CP_01_C11 (scFv, not shown: small tags and cut ends)
scFv: QVQLVESGAEVKKPGASVKVSCKASGYTFTGYYMHWVRQAPGQGLEWMGRINPNSGGTNYAQKFQGRVTMTRDTSISTAYMELSRLRSDDTAVYYCASGGAGWNWGQGTMVTVSSGGGGSGGGGSGGGASNFMLTQPHSVSESPGKTATISCTRSSGSIASNYVQWYQQRPGSAPTTVIYEDNQRPFGVPDRFSGSIDSSSNSASLTISGLKTEDEADYYCQSHDSSNVVFGGGTQLTVLGQPAA
Take B3: the TRBC2 Binding in test [2] was found to be 622 TRF units.

B4: CP_01_D12 (scFv, not shown: small tags and cut ends)
scFv: EVQLLESGGGVVQPGRSLRLSCAASGFTFSSYAMHWVRQAPGKGLEWVAVISYDGSNKYYADSVKGRFTISRDNSKNTLYLQMNSLRAEDTAVYYCAKGGDTYGFLDNWGQGTMVTVSSGGGGSGGGGSGGGASDIQMTQSPSTLSASVGDRVTITCRASQSISSWLAWYQQKPGKAPKLLIYKASSLESGVPSRFSGSGSGTDFTLTISSLQPEDFATYYCQQFNAYPLTFGGGTKVEIKRTAAA
Molecule B4 displayed a TRBC2 Binding in test [2] of 298 TRF units.

B5: CP_03_D09 (scFv, not shown: small tags and cut ends)
scFv: EVQLVQSGAEVKKPGSSVKVSCEASGYTFTSYAISWVRQAPGQGLEWMGWMNPNSGNTGYAQKFQGRVTMTRNTSISTAYMELSSLRSEDTAVYYCARVSSYYGMDVWGQGTLVTVSSGGGGSGGGGSGGGASNFMLTQPLSVSESPGKTVTISCTRSSGSIASNYVQWYQQRPGSAPTTVIYEDNQRPSGVPDRFSGSIDSSSNSASLTISGLKTEDEADYYCQSYNSSNHWVFGGGTKVTVLGQPAA
In test [1], B5 showed a TRBC1 Binding of 544 TRF units.

B6: CP_01_D10 (scFv, not shown: small tags and cut ends)
scFv: QVQLVESGGGLVQPGRSLRLSCAASGFTFSSYAMHWVRQAPGKGLEWVAVISYDGSSKYYADSVKGRFTISRDNSKNTLYLQMNSLRAEDTAVYYCAKGGGSFGAFDIWGQGTLVTVSSGGGGSGGGGSGGGASDIQMTQSPSSLSASVGDRVTITCRASQSISRYLNWYQQKPGKAPNLLIYAASSLQSGVPSRFSGSGSGTDFTLTISSLQPEDFATYYCQQYNSYPLTFGGGTKLEIKRTAAA
B6 displayed a TRBC2 Binding in test [2] of 306 TRF units.

B7: CP_03_F09 (scFv, not shown: small tags and cut ends)
scFv: QMQLVQSGAEVKKPGASVKVSCKASGYTFASYYMHWVRQAPGQGLEWMGIINPSGGSTSYAQKFQGRVTMTRDTSTSTVYMELSRLRSDDTAVYYCASNRGGSYKSVGMDVWGQGTTVTVSSGGGGSGGGGSGGGASNFMLTQPQSVSESPGKTVTISCTRSSGNFASKYVQWYQQRPGSSPTTVIYENYQRPSGVPDRFSGSIDSSSNSATLTISGLKTEDEADYYCQSYDEVSVVFGGGTQLTVLGQPAA
Molecule B7 had a TRBC1 Binding in test [1] of 889 TRF units.

B8: CP_03_H06 (scFv, not shown: small tags and cut ends)
scFv: QVQLVESGGGLVKPGGSLRLSCAASGFTFSDYYMSWIRQAPGKGLEWVSYISSSGSTIYYADSVEGRFTISRDNAKNSLYLQMNSLRTEDTAVYYCARARVGGMDVWGQGTMVTVSSGGGGSGGGGSGGGASNFMLTQPHSVSESPGKTVTISCTRSSGSIASNYVQWYQQRPGSSPTTVIYEDNQRPSGVPDRFSGSIDSSSNSASLTISGLKTEDEADYYCQSFDADNLHVVFGGGTKLTVLGQPAA
In test [1], B8 displayed a TRBC1 Binding of 391 TRF units.

B9: CP_03_F10 (scFv, not shown: small tags and cut ends)
scFv: EVQLVESGAEVKKPGASVKVSCKASGYTFTGYYMHWVRQAPGQGLEWMGRINPNSGGTNYAQKFQGRVTMTRDTSISTAYMELSSLRSEDTAVYYCARFGERYAFDIWGQGTLVTVSSGGGGSGGGGSGGGASQSELTQPPSASGSPGQSVTISCTGTSTDVGAFHFVSWYQHTPGKAPKLLISEVRKRASGVPDRFSGSRSGNTASLTVSGLQSEDEADYFCSAYTGSNYVFGSGTKLTVLGQPAA
In turn, B9 registered a TRBC1 Binding in test [1] of 1680 TRF units.

B10: CP_03_G09 (scFv, not shown: small tags and cut ends)
scFv: QVQLQQSGPGLVKPSQTLSLTCAISGDSVSSNSAAWNWIRQSPSRGLEWLGRTYYRSKWYNDYAVSVKSRITINPDTSKNQFSLQLNSVTPEDTAVYYCARDQWLANYYYYGMDVWGQGTLVTVSSGGGGSGGGGSGGGASSYELTQPLSVSVALGQTARITCGGNNIGSKNVHWYQQKPGQAPVLVIYRDNNRPSGIPERFSGSNSGNTATLTISKAQAGDEADYYCQVWDSNSWVFGGGTKLTVLGQPAA
Molecule B10 displayed a TRBC1 Binding in test [1] of 979 TRF units.

B11: CP_03_C12 (scFv, not shown: small tags and cut ends)
scFv: EVQLVQSGAEVKKPGASVKVSCKASGYTFTGYYMHWVRQAPGQGLEWMGWINPNSGGTNYAQKFQGRVTMTRDTSISTAYMELSSLRSEDTAVYYCARDTGPIDYWGQGTMVTVSSGGGGSGGGGSGGGASDIVMTQTPLSLSVTPGQPASISCKSSQSLLHSDGKTYLYWYLQKPGQPPQLLVYEVSNRFSGVPDKFSGSGSGTDFTLKISRVEAEDVGVYYCMQGIQLPPTFGGGTKVDIKRTAAA
Regarding B11, the TRBC1 Binding in test [1] amounted to 789 TRF units.
